Data from patent publication US20230025280A1, “PH RESPONSIVE COMPOSITIONS, FORMULATIONS, AND METHODS OF IMAGING A TUMOR” (ONCONANO MEDICINE, INC, priority 2019, published 2023).
Several values for one entry are separate records, joined by “and”; a condition that tells them apart may be missing. Identical values can stand only once.

Assay: Phase 1 (1a/1b) pharmacokinetics: plasma concentrations after single IV dose (validated direct fluorescence reader assay), noncompartmental analysis
Type: in vivo, human
Conditions: 1.2 mg/kg
Excerpt: Phase 1 is a single-Principal Investigator, non-randomized, open-label, single-arm, cross-sectional study to evaluate the safety, PK profile, and imaging feasibility of Compound 1 in patients with solid cancers who require surgical excision. The main purpose of this study was to investigate the safety, PK, and feasibility of Compound 1 as an intra-operative optical imaging agent to detect tumors and metastatic lymph nodes in solid cancers. The study was intended to investigate the optimal dose range of Compound 1 for an adequate TBR and CNR of fluorescence obtained intraoperatively at 24 (±8) hours post dosing and with ex vivo specimens using ICG compatible cameras and imaging devices.
Phase 1 enrolled 30 patients with solid cancers (HNSCC, breast cancer, esophageal cancer, or colorectal cancer) who have a biopsy-confirmed diagnosis of respective tumor types and are scheduled to undergo surgical resection of the tumor. The study design included a standard 3+3 design for the dose-escalation portion (Phase 1a; N=18 maximum) followed by a dose-expansion portion (Phase 1b; N=15). All patients received a single I.V. dose of Compound 1, followed by routine surgery approximately 24 hours after infusion of Compound 1.
Phase 1a was a dose-finding study performed in 5 cohorts of 3 patients each. The dose levels evaluated were […], and 1.2 mg/kg, in this sequence. Inter-cohort dose escalation took place after the last patient in the previous cohort completed the Day 10 safety assessment. Safety, PK, and imaging feasibility were evaluated in both the Phase 1a and 1b portions of the study. Patient safety is assessed during the study and for up to 10 days post-dose.
Study design: Single Compound 1 IV dose was administered as a 1-5 minute IV infusion to patients in five cohorts (0.1, 0.3, 0.5, 0.8, and 1.2 mg/kg) with three patients per cohort in Phase 1a and 15 patients at a dose of 1.2 mg/kg in Phase 1b. Patient demographic information including tumor types is presented in Table 4 and 5 for Phase 1a and Table 5 for Phase 1b. Intertek Pharmaceutical Services (San Diego, Calif.) determined Compound 1 plasma concentrations using a validated direct fluorescence reader assay. Pacific BioDevelopment (Davis, Calif.) performed the PK analysis.
Sample collection: Blood samples were collected prior to infusion and at 10 minutes and 0.5, 1, 3, 8, 24, 48, 72, and 240 hours after infusion.
Analysis: Plasma concentration versus time profiles were generated for each patient. Pharmacokinetic parameters were estimated using Phoenix WinNonlin (version 8.0). According to SOP, concentrations reported as BQL were set to 0 except for the 0.5 h sample for subject #ON1102, which was set to LLOQ/2 ([…] value used in parameter calculations) and the 24 and 48 h samples.
If the coefficient of determination for the terminal slope estimation was less than 0.8, T1/2 was not reported (NR). AUC extrapolated to infinity is not reported for any data set because in all cases the % extrapolated AUC was greater than 20% and thus the AUCinf estimate would not be reliable. The concentration at 10 minutes, the first time point measured (C10m), was also reported for each patient.
The area under the plasma concentration versus time curves from dosing to the last time point with a measurable concentration (AUClast) was estimated by the linear trapezoid method. The last three or more time points were used to estimate the elimination rate constant (λz) which was used to estimate the terminal-phase half-life (T1/2) and AUC from zero to infinity (AUCINF) from the following equations: […]

Substance: PEO90-140-b-P(DBA60-150-r-ICG0-3-r-AMA0-3) [Compound 1]
- Differences in pharmacokinetic parameters based on tumor type (Phase 1a and Phase 1b): no apparent differences
- T1/2 (ALL cancer types, Mean, N 16): 44.5 h
- AUC0-24 hr (ALL cancer types, Mean, N 18): 615 µg·h/mL
- AUCall (ALL cancer types, Mean, N 18): 1670 µg·h/mL
- AUClast (ALL cancer types, Mean, N 18): 1100 µg·h/mL
- C10 m (ALL cancer types, Mean, N 18): 33.0 µg/mL
- Cmax (ALL cancer types, Mean, N 18): 34300 ng/mL
- Tmax (ALL cancer types, Mean, N 18): 0.834 h
- T1/2 (ALL cancer types, Median, N 16): 40.5 h
- AUC0-24 hr (ALL cancer types, Median, N 18): 615 µg·h/mL
- AUCall (ALL cancer types, Median, N 18): 1170 µg·h/mL
- AUClast (ALL cancer types, Median, N 18): 997 µg·h/mL
- C10 m (ALL cancer types, Median, N 18): 32.4 µg/mL
- Cmax (ALL cancer types, Median, N 18): 33600 ng/mL
- Tmax (ALL cancer types, Median, N 18): 0.500 h
- AUC0-24 hr (BC, Mean, N 5): 592 µg·h/mL
- AUCall (BC, Mean, N 5): 1730 µg·h/mL
- AUClast (BC, Mean, N 5): 1150 µg·h/mL
- C10 m (BC, Mean, N 5): 31.2 µg/mL
- Cmax (BC, Mean, N 5): 32900 ng/mL
- T1/2 (BC, Mean, N 5): 51.0 h
- Tmax (BC, Mean, N 5): 0.634 h
- AUC0-24 hr (BC, Median, N 5): 574 µg·h/mL
- AUCall (BC, Median, N 5): 1170 µg·h/mL
- AUClast (BC, Median, N 5): 1020 µg·h/mL
- C10 m (BC, Median, N 5): 33.0 µg/mL
- Cmax (BC, Median, N 5): 33000 ng/mL
- T1/2 (BC, Median, N 5): 45.5 h
- Tmax (BC, Median, N 5): 0.500 h
- AUC0-24 hr (BC, individual subjects): 630 µg·h/mL and 693 µg·h/mL and 574 µg·h/mL and 562 µg·h/mL and 502 µg·h/mL
- AUCall (BC, individual subjects): 1170 µg·h/mL and 3190 µg·h/mL and 1020 µg·h/mL and 1120 µg·h/mL and 2120 µg·h/mL
- AUClast (BC, individual subjects): 1020 µg·h/mL and 1740 µg·h/mL and 891 µg·h/mL and 968 µg·h/mL and 1110 µg·h/mL
- C10 m (BC, individual subjects): 36.5 μg/mL and 33.0 μg/mL (2×) and 28.0 μg/mL and 25.5 μg/mL
- Cmax (BC, individual subjects): 37700 ng/mL and 34300 ng/mL and 33000 ng/mL and 32000 ng/mL and 27600 ng/mL
- T1/2 (BC, individual subjects): 34.5 h and 83.0 h and 30.6 h and 45.5 h and 61.4 h
- Tmax (BC, individual subjects): 1.00 h and 0.170 h and 0.500 h
- AUC0-24 hr (CRC, Mean, N 3): 677 µg·h/mL
- AUCall (CRC, Mean, N 3): 1790 µg·h/mL
- AUClast (CRC, Mean, N 3): 1150 µg·h/mL
- C10 m (CRC, Mean, N 3): 35.5 µg/mL
- Cmax (CRC, Mean, N 3): 36400 ng/mL
- T1/2 (CRC, Mean, N 3): 46.3 h
- Tmax (CRC, Mean, N 3): 0.557 h
- AUC0-24 hr (CRC, Median, N 3): 684 µg·h/mL
- AUCall (CRC, Median, N 3): 1090 µg·h/mL
- AUClast (CRC, Median, N 3): 971 µg·h/mL
- C10 m (CRC, Median, N 3): 35.8 µg/mL
- Cmax (CRC, Median, N 3): 36400 ng/mL
- T1/2 (CRC, Median, N 3): 33.4 h
- Tmax (CRC, Median, N 3): 0.500 h
- AUC0-24 hr (CRC, individual subjects): 721 µg·h/mL and 684 µg·h/mL and 626 µg·h/mL
- AUCall (CRC, individual subjects): 3350 µg·h/mL and 939 µg·h/mL and 1090 µg·h/mL
- AUClast (CRC, individual subjects): 1780 µg·h/mL and 684 µg·h/mL and 971 µg·h/mL
- C10 m (CRC, individual subjects): 38.6 µg/mL and 32.1 µg/mL and 35.8 µg/mL
- Cmax (CRC, individual subjects): 38600 ng/mL and 34100 ng/mL and 36400 ng/mL
- T1/2 (CRC, individual subjects): 77.9 h and 33.4 h and 27.7 h
- Tmax (CRC, individual subjects): 0.170 h and 1.00 h and 0.500 h
- AUC0-24 hr (EC, Mean, N 3): 659 µg·h/mL
- AUCall (EC, Mean, N 3): 1570 µg·h/mL
- AUClast (EC, Mean, N 3): 1170 µg·h/mL
- C10 m (EC, Mean, N 3): 34.7 µg/mL
- Cmax (EC, Mean, N 3): 35800 ng/mL
- T1/2 (EC, Mean, N 3): 37.1 h
- Tmax (EC, Mean, N 3): 0.723 h
- AUC0-24 hr (EC, Median, N 3): 606 µg·h/mL
- AUCall (EC, Median, N 3): 1460 µg·h/mL
- AUClast (EC, Median, N 3): 1270 µg·h/mL
- C10 m (EC, Median, N 3): 32.6 µg/mL
- Cmax (EC, Median, N 3): 32600 ng/mL
- T1/2 (EC, Median, N 3): 34.4 h
- Tmax (EC, Median, N 3): 1.00 h
- AUC0-24 hr (EC, individual subjects): 606 µg·h/mL and 787 µg·h/mL and 585 µg·h/mL
- AUCall (EC, individual subjects): 2150 µg·h/mL and 1460 µg·h/mL and 1100 µg·h/mL
- AUClast (EC, individual subjects): 1280 µg·h/mL and 1270 µg·h/mL and 961 µg·h/mL
- C10 m (EC, individual subjects): 31.4 µg/mL and 40.0 µg/mL and 32.6 µg/mL
- Cmax (EC, individual subjects): 32600 ng/mL and 42200 ng/mL
- T1/2 (EC, individual subjects): 43.3 h and 34.4 h and 33.6 h
- Tmax (EC, individual subjects): 1.00 h and 0.170 h
- T1/2 (HNSCC, Mean, N 5): 41.4 h
- AUC0-24 hr (HNSCC, Mean, N 7): 585 µg·h/mL
- AUCall (HNSCC, Mean, N 7): 1620 µg·h/mL
- AUClast (HNSCC, Mean, N 7): 1020 µg·h/mL
- C10 m (HNSCC, Mean, N 7): 32.5 µg/mL
